In assay [1] the target is p210 BCR-ABL1 T315I kinase domain mutant stably expressed in Ba/F3 cells (Homo sapiens (Human)) (UniProt P11274).
In assay [2] the target is endogenous Bcr-Abl of K562 cells (human leukemia Bcr-Abl+ cells; wild-type, unmutated) (human) (UniProt P11274).
Assay [3] has as its target p210 Bcr-Abl (native, non-mutated) stably expressed in Ba/F3 cells (Homo sapiens (Human)) (UniProt P11274).
Assay [4] addresses p210 BCR-ABL1 T315I kinase domain mutant stably expressed in Ba/F3 cells (Homo sapiens (Human)) (UniProt P11274). This is another data set of the same source.
The target of assay [5] is p210 BCR-ABL1 E255V kinase domain mutant stably expressed in Ba/F3 cells (Homo sapiens (Human)) (UniProt P11274).
For assay [6], the target named is p210 BCR-ABL1 E255V/T315I compound mutant stably expressed in Ba/F3 cells (Homo sapiens (Human)) (UniProt P11274).

B1: EGFP-CC^mut3 (expressed from pEGFP-CC^mut3) (designed binder)
chain: MVDPVGFAEAWKAQFPDSEPPRMELRSVGDIEQELERAEARIRRDEQRVNQERFRMIYLETLLAKEKKSYDR
With B1, the colony forming assay (transformative ability) of Ba/F3-p210-T315I cells in assay [1] is 40%. For the same molecule, the colony forming assay (transformative ability) of K562 cells (fold decrease) in assay [2] turned out to be 3.

B2: mCherry-CC^mut3 fusion (expressed from pmCherry-CC^mut3) (designed binder)
chain: B1 chain
B2: in assay [3], the apoptosis (Annexin V / 7-AAD, 72 h) of Ba/F3 cells expressing native BCR-ABL1 (fold increase) is 3 and the cell proliferation (MTS assay) of Ba/F3 cells expressing native BCR-ABL1 (fold reduction) was > 2. Besides, in assay [4], the cell proliferation (MTS assay) of Ba/F3 cells expressing BCR-ABL1 T315I (fold reduction) turned out to be 3 and the colony formation assay of Ba/F3 cells expressing BCR-ABL1 T315I (fold reduction) is > 10. In assay [5], the cell proliferation (MTS assay) of Ba/F3 cells expressing BCR-ABL1 E255V (fold reduction) came to 3 and the colony formation assay of Ba/F3 cells expressing BCR-ABL1 E255V (fold reduction) was > 10. This molecule also registered a colony formation assay of Ba/F3 cells expressing BCR-ABL1 E255V/T315I in assay [6] of 50%.

The values are drawn from US20170174750A1.
